One data set deals with biotinyl-Val-oxazolone. Kind of data set: self-aminoacylation, catalytic enhancement (BVO) (fold over background); higher = more active; k-Seq, kA / k0A0; sequences stand for … in GGGAAUGGAUCCACAUCUACGAAUUC…UUCACUGCAGACUUGACGAAGCUG
Summed up: (§1)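 Mutagenized RNA pools with a 21-nt variable region (0.43 μM) were reacted with each biotinyl-aminoacyl-oxazolone at 2–1250 μM for 90 minutes at room temperature, in 50 μL HEPES/NaCl/KCl/MgCl2/CaCl2 buffer containing 5% acetonitrile at pH 6.9–7.0. RNA captured on streptavidin was quantified by triplicate qPCR and by Illumina sequencing. The fraction reacted for each sequence was fit to a pseudo-first-order model with bootstrapping, and catalytic enhancement is the median kA divided by the uncatalyzed rate, taken as the low-activity peak of a bimodal Gaussian fit.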

A further data set has as its system biotinyl-Trp-oxazolone. In words: self-aminoacylation, catalytic enhancement (BWO) (fold over background); higher = more active; k-Seq, kA / k0A0; sequences stand for … in GGGAAUGGAUCCACAUCUACGAAUUC…UUCACUGCAGACUUGACGAAGCUG
Summed up:
as §1

Another data set concerns biotinyl-Phe-oxazolone. In words: self-aminoacylation, catalytic enhancement (BFO) (fold over background); higher = more active; k-Seq, kA / k0A0; sequences stand for … in GGGAAUGGAUCCACAUCUACGAAUUC…UUCACUGCAGACUUGACGAAGCUG
Summed up:
as §1

The next data set concerns biotinyl-Leu-oxazolone. In words: self-aminoacylation, catalytic enhancement (BLO) (fold over background); higher = more active; k-Seq, kA / k0A0; sequences stand for … in GGGAAUGGAUCCACAUCUACGAAUUC…UUCACUGCAGACUUGACGAAGCUG
Summed up:
as §1

Another data set relates to biotinyl-Met-oxazolone. Kind of data set: self-aminoacylation, catalytic enhancement (BMO) (fold over background); higher = more active; k-Seq, kA / k0A0; sequences stand for … in GGGAAUGGAUCCACAUCUACGAAUUC…UUCACUGCAGACUUGACGAAGCUG
Summed up: as §1

For the next data set, the system named is biotinyl-Ile-oxazolone. Kind of data set: self-aminoacylation, catalytic enhancement (BIO) (fold over background); higher = more active; k-Seq, kA / k0A0; sequences stand for … in GGGAAUGGAUCCACAUCUACGAAUUC…UUCACUGCAGACUUGACGAAGCUG
Summed up:
as §1

Variants at the floor of the assay were thinned out.

As to “AUUCACCUGGGUCACCGGGUG [Fam2.2 aminoacylation ribozyme variant]”, the self-aminoacylation stood at 2.97 with biotinyl-Val-oxazolone; 5.36 in the data set with biotinyl-Trp-oxazolone; 22.4 in the data set with biotinyl-Phe-oxazolone; 5.41 in the data set with biotinyl-Leu-oxazolone; 4.54 with biotinyl-Met-oxazolone; 3.43 in the data set with biotinyl-Ile-oxazolone.

For the sequence “AUUCACCUGGGUCAGCGGGUG [Fam2.2 aminoacylation ribozyme variant]”, the self-aminoacylation in the data set with biotinyl-Val-oxazolone was 4.26; in the data set with biotinyl-Trp-oxazolone, 4.72; with biotinyl-Phe-oxazolone, 36.7; in the data set with biotinyl-Leu-oxazolone it was 6.66; with biotinyl-Met-oxazolone, 5.26; in the data set with biotinyl-Ile-oxazolone, 4.33.

In the case of “AUUCACCUGGGUCAUCGGGGG [Fam2.2 aminoacylation ribozyme variant]”, the self-aminoacylation with biotinyl-Val-oxazolone was found to be 4.1; with biotinyl-Trp-oxazolone it was 3.71; with biotinyl-Phe-oxazolone, 21.4; in the data set with biotinyl-Leu-oxazolone, 5.65; in the data set on biotinyl-Met-oxazolone it was 4.26; in the data set with biotinyl-Ile-oxazolone it was 4.25.

Turning to “AUUCACCUGGGUCAUCGGGUG [Fam2.2 aminoacylation ribozyme variant]”, the self-aminoacylation with biotinyl-Val-oxazolone stood at 10.4; in the data set on biotinyl-Trp-oxazolone, 18.2; in the data set on biotinyl-Phe-oxazolone, 67.8; in the data set with biotinyl-Leu-oxazolone, 23.2; in the data set with biotinyl-Met-oxazolone it was 20.2; in the data set on biotinyl-Ile-oxazolone, 8.95.

Take “AUUCACCUGGGUCAUCGGGUU [Fam2.2 aminoacylation ribozyme variant]”: the self-aminoacylation with biotinyl-Val-oxazolone came to 5.13; with biotinyl-Trp-oxazolone, 7.09; in the data set on biotinyl-Phe-oxazolone, 17.4; with biotinyl-Leu-oxazolone, 9.06; with biotinyl-Met-oxazolone, 6.89; in the data set on biotinyl-Ile-oxazolone, 4.39.

In the case of “AUUCACCUGGGUCAUCGGUUG [Fam2.2 aminoacylation ribozyme variant]”, the self-aminoacylation in the data set with biotinyl-Val-oxazolone was 1.44; with biotinyl-Trp-oxazolone it was 1.62; with biotinyl-Phe-oxazolone, 3.76; in the data set on biotinyl-Leu-oxazolone, 1.4; in the data set on biotinyl-Met-oxazolone, 0.904; in the data set with biotinyl-Ile-oxazolone, 1.25.

As to “AUUCACCUGGGUCAUCUGGUG [Fam2.2 aminoacylation ribozyme variant]”, the self-aminoacylation in the data set with biotinyl-Val-oxazolone came to 2; in the data set with biotinyl-Trp-oxazolone, 2.99; in the data set with biotinyl-Phe-oxazolone, 21; in the data set with biotinyl-Leu-oxazolone it was 3.46; with biotinyl-Met-oxazolone, 2.83; with biotinyl-Ile-oxazolone, 2.18.

“AUUCACCUGUGUCAUCGGGUG [Fam2.2 aminoacylation ribozyme variant]”: the self-aminoacylation in the data set on biotinyl-Val-oxazolone came out at 6.51; with biotinyl-Trp-oxazolone it was 8.96; in the data set on biotinyl-Phe-oxazolone it was 28.1; with biotinyl-Leu-oxazolone it was 15.7; in the data set on biotinyl-Met-oxazolone it was 10.8; with biotinyl-Ile-oxazolone, 5.71.

With “AUUCACCUUGGUCAUAGGGUG [Fam2.2 aminoacylation ribozyme variant]”, the self-aminoacylation turned out to be 1.16 with biotinyl-Val-oxazolone; 1.05 in the data set on biotinyl-Trp-oxazolone; 1.15 in the data set with biotinyl-Phe-oxazolone; 1.59 in the data set with biotinyl-Leu-oxazolone; 1.21 in the data set with biotinyl-Met-oxazolone; 0.995 in the data set on biotinyl-Ile-oxazolone.

As to “AUUCACCUUGGUCAUCGGUUG [Fam2.2 aminoacylation ribozyme variant]”, the self-aminoacylation was found to be 1.06 with biotinyl-Val-oxazolone; 0.806 in the data set on biotinyl-Trp-oxazolone; 0.347 in the data set with biotinyl-Phe-oxazolone; 0.855 with biotinyl-Leu-oxazolone; 0.844 with biotinyl-Met-oxazolone; 0.9 in the data set with biotinyl-Ile-oxazolone.

“AUUCACCUUGGUGAUCGGGUG [Fam2.2 aminoacylation ribozyme variant]”: the self-aminoacylation in the data set on biotinyl-Val-oxazolone worked out at 3.7; in the data set with biotinyl-Trp-oxazolone, 5.35; with biotinyl-Phe-oxazolone, 23.8; with biotinyl-Leu-oxazolone it was 4.24; in the data set with biotinyl-Met-oxazolone, 3.12; in the data set with biotinyl-Ile-oxazolone, 3.1.

Turning to “AUUCACGAAGGUCAUCGGGUG [Fam2.2 aminoacylation ribozyme variant]”, the self-aminoacylation with biotinyl-Val-oxazolone is 6.74; in the data set on biotinyl-Trp-oxazolone, 8.81; in the data set on biotinyl-Phe-oxazolone, 89.6; in the data set with biotinyl-Leu-oxazolone, 11.3; in the data set with biotinyl-Met-oxazolone, 10.5; in the data set on biotinyl-Ile-oxazolone, 5.12.

For “AUUCACGGAGGUCAUCGGGUG [Fam2.2 aminoacylation ribozyme variant]”, the self-aminoacylation stood at 6.35 in the data set on biotinyl-Val-oxazolone; 7.23 in the data set on biotinyl-Trp-oxazolone; 65.1 with biotinyl-Phe-oxazolone; 9.33 in the data set on biotinyl-Leu-oxazolone; 7.36 with biotinyl-Met-oxazolone; 4.28 with biotinyl-Ile-oxazolone.

Consider “AUUCACGUAAGUCAUCGGGUG [Fam2.2 aminoacylation ribozyme variant]”, for which the self-aminoacylation in the data set on biotinyl-Val-oxazolone amounted to 10.4; in the data set on biotinyl-Trp-oxazolone, 13.3; in the data set on biotinyl-Phe-oxazolone, 148; in the data set on biotinyl-Leu-oxazolone it was 20.4; in the data set on biotinyl-Met-oxazolone, 18.3; in the data set with biotinyl-Ile-oxazolone, 9.9.

As to “AUUCACGUAGGACAUCGGGUG [Fam2.2 aminoacylation ribozyme variant]”, the self-aminoacylation amounted to 4.37 with biotinyl-Val-oxazolone; 5.55 in the data set on biotinyl-Trp-oxazolone; 24.5 with biotinyl-Phe-oxazolone; 5.61 with biotinyl-Leu-oxazolone; 5.02 in the data set on biotinyl-Met-oxazolone; 3.6 in the data set on biotinyl-Ile-oxazolone.

For the sequence “AUUCACGUAGGGCAUCGGGUG [Fam2.2 aminoacylation ribozyme variant]”, the self-aminoacylation in the data set on biotinyl-Val-oxazolone stood at 5.03; in the data set with biotinyl-Trp-oxazolone, 5.13; in the data set with biotinyl-Phe-oxazolone, 43.3; in the data set with biotinyl-Leu-oxazolone, 6.02; in the data set with biotinyl-Met-oxazolone, 4.63; with biotinyl-Ile-oxazolone, 3.79.

With “AUUCACGUAGGUCACCGGGUG [Fam2.2 aminoacylation ribozyme variant]”, the self-aminoacylation in the data set on biotinyl-Val-oxazolone was determined as 5.08; in the data set on biotinyl-Trp-oxazolone, 7.15; in the data set on biotinyl-Phe-oxazolone it was 62.5; in the data set with biotinyl-Leu-oxazolone, 8.29; with biotinyl-Met-oxazolone, 7.45; with biotinyl-Ile-oxazolone, 5.08.

As for “AUUCACGUAGGUCAGCGGGUG [Fam2.2 aminoacylation ribozyme variant]”, the self-aminoacylation in the data set with biotinyl-Val-oxazolone was 2.48; in the data set on biotinyl-Trp-oxazolone it was 2.71; with biotinyl-Phe-oxazolone, 16.1; in the data set on biotinyl-Leu-oxazolone, 3.04; in the data set with biotinyl-Met-oxazolone, 2.52; in the data set on biotinyl-Ile-oxazolone it was 2.48.

Consider “AUUCACGUAGGUCAUCGGGGG [Fam2.2 aminoacylation ribozyme variant]”, for which the self-aminoacylation came out at 2.09 in the data set with biotinyl-Val-oxazolone; 2.53 in the data set with biotinyl-Trp-oxazolone; 1.73 in the data set on biotinyl-Phe-oxazolone; 2.4 with biotinyl-Leu-oxazolone; 2.66 in the data set with biotinyl-Met-oxazolone; 2.24 with biotinyl-Ile-oxazolone.

Consider “AUUCACGUAGGUCAUCGGGUG [Fam2.2 aminoacylation ribozyme variant]”, for which the self-aminoacylation was 5.15 in the data set with biotinyl-Val-oxazolone; 6.49 in the data set with biotinyl-Trp-oxazolone; 53.2 with biotinyl-Phe-oxazolone; 7.22 in the data set on biotinyl-Leu-oxazolone; 6.62 with biotinyl-Met-oxazolone; 4.22 in the data set on biotinyl-Ile-oxazolone.

“AUUCACGUAGGUCAUUGGGUG [Fam2.2 aminoacylation ribozyme variant]”: the self-aminoacylation was determined as 4 in the data set with biotinyl-Val-oxazolone; 4 in the data set on biotinyl-Trp-oxazolone; 25.2 in the data set with biotinyl-Phe-oxazolone; 5.11 in the data set on biotinyl-Leu-oxazolone; 4.43 in the data set on biotinyl-Met-oxazolone; 3.18 in the data set with biotinyl-Ile-oxazolone.

Regarding “AUUCACGUAGGUGAUCGGGUG [Fam2.2 aminoacylation ribozyme variant]”, the self-aminoacylation in the data set with biotinyl-Val-oxazolone turned out to be 3.52; in the data set with biotinyl-Trp-oxazolone, 3.33; in the data set with biotinyl-Phe-oxazolone, 20.3; in the data set with biotinyl-Leu-oxazolone it was 4.12; in the data set on biotinyl-Met-oxazolone, 3.98; with biotinyl-Ile-oxazolone, 2.91.

As to “AUUCACGUAGGUUAUCGGGUG [Fam2.2 aminoacylation ribozyme variant]”, the self-aminoacylation is 5.09 in the data set with biotinyl-Val-oxazolone; 4.68 in the data set with biotinyl-Trp-oxazolone; 38.9 in the data set on biotinyl-Phe-oxazolone; 4.91 with biotinyl-Leu-oxazolone; 5.38 with biotinyl-Met-oxazolone; 3.34 with biotinyl-Ile-oxazolone.

In the case of “AUUCACUUAAGUCAUCGGGUG [Fam2.2 aminoacylation ribozyme variant]”, the self-aminoacylation in the data set with biotinyl-Val-oxazolone is 5.11; in the data set on biotinyl-Trp-oxazolone it was 9.67; with biotinyl-Phe-oxazolone it was 71.7; in the data set with biotinyl-Leu-oxazolone, 12.4; in the data set with biotinyl-Met-oxazolone it was 8.88; with biotinyl-Ile-oxazolone, 5.72.

As for “AUUCACUUAGGUCAUCGAGUG [Fam2.2 aminoacylation ribozyme variant]”, the self-aminoacylation was found to be 1.64 in the data set on biotinyl-Val-oxazolone; 1.99 with biotinyl-Trp-oxazolone; 4.43 with biotinyl-Phe-oxazolone; 2.75 in the data set on biotinyl-Leu-oxazolone; 2.42 with biotinyl-Met-oxazolone; 1.68 in the data set with biotinyl-Ile-oxazolone.

The values above are taken from the supplement of paper PMC9233669.
